Measurements: patent US20220204624A1 (Xencor, published 2022)
Where a chain is given by its changes, count along the chain named. Blank lines part the entries; values can stand above or below the binder they belong to.

Assays:
cynomolgus CTLA-4 = cynomolgus CTLA-4 (cynomolgus, UniProt G7PL88 36-161); test: Octet (BLI), global fit, 1:1 binding model
human PD-1 = human PD-1 (human, UniProt Q15116 25-167, limits assumed); test: Octet (BLI), global fit, 1:1 binding model
cynomolgus PD-1 = molecular target: T1, cynomolgus PD-1 (cynomolgus, UniProt B0LAJ3 25-170); test: Octet (BLI), global fit, 1:1 binding model
T1 construct: also called cyno PD-1; not shown: carrier of the soluble construct (His tag or Fc)

human CTLA-4 = human CTLA-4 (human, UniProt P16410 36-161, limits assumed); test: Octet (BLI), global fit, 1:1 binding model
His-tagged human PD-1 [1] = molecular target: T2, His-tagged human PD-1 (human, UniProt Q15116 25-167, limits assumed); test: Octet, antibody on AHC biosensors, His-tagged PD-1 as analyte
T2 construct: also called PD-1-His; huPD-1-His; not shown: histidine tag

His-tagged human PD-1 [2] = molecular target: T2, His-tagged human PD-1; test: Octet, His-tagged PD-1 as analyte
His-tagged human PD-1 [3] = molecular target: T2, His-tagged human PD-1; test: Biacore (SPR), mAb captured on Protein A chip, histidine-tagged human PD-1 as analyte
His-tagged human PD-1 [4] = molecular target: T2, His-tagged human PD-1; test: Octet, antibody on AHC biosensors, His-tagged human PD-1 as analyte

T2 sequence (Q15116 25-167 limits assumed): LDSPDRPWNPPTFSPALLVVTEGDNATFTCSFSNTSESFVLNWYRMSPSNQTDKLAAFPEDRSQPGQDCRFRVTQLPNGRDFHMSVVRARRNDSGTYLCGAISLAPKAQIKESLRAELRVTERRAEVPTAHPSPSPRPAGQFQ
Chain of human PD-1 (Q15116 25-167 limits assumed): as above
Chain of human CTLA-4 (P16410 36-161 limits assumed): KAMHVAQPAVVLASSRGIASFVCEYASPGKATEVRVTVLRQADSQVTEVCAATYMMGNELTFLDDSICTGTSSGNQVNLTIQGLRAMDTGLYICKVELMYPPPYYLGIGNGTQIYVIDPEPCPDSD
T1 sequence (B0LAJ3 entry or part of it limits assumed, form in doubt): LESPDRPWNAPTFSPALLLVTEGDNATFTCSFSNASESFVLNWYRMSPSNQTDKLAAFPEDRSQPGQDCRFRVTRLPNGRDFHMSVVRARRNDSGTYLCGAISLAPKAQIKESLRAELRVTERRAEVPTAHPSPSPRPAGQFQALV
Chain of cynomolgus CTLA-4 (G7PL88 entry or part of it limits assumed, form in doubt): as the sequence (P16410 36-161 limits assumed) above, with S14N, L106M counted along it

Kd (cynomolgus CTLA-4): ~23 nM
Kd (human PD-1): 1.4 nM
Kd (cynomolgus PD-1): 5.5 nM
Kd (human CTLA-4): ~4.1 nM
B1: XmAb20717 (bispecific antibody)
chain 1: not shown
chain 2: EIVLTQSPATLSASPGERVTLTCRASQSVGNDVAWYQQKPGQAPRLLINYASHRYTGVPDRFTGSGYGTEFTLTISSVQSEDFGVYYCQQDFSSPRTFGGGTKVEIKGKPGSGKPGSGKPGSGKPGSEVQLVESGGGLVKPGGSLRLSCVASGFTFSNYWMNWVRQAPGKGLEWVAEIRLYSNNYATHYAESVKGRFTISRDDSKSTLYLQMNNLKTEDTGVYYCTRYYGNYGGYFDVWGRGTLVTVSSEPKSSDKTHTCPPCPAPPVAGPSVFLFPPKPKDTLMISRTPEVTCVVVDVKHEDPEVKFNWYVDGVEVHNAKTKPREEQYNSTYRVVSVLTVLHQDWLNGKEYKCKVSNKALPAPIEKTISKAKGQPREPQVYTLPPSREQMTKNQVKLTCLVKGFYPSDIAVEWESNGQPENNYKTTPPVLDSDGSFFLYSKLTVDKSRWQQGNVFSCSVLHEALHSHYTQKSLSLSPGK
chain 3: not shown

Kd (His-tagged human PD-1 [1]): 15 to 19 nM
Kd (His-tagged human PD-1 [2]): ~18 nM
Kd (His-tagged human PD-1 [3]): 8.6 nM
B2: XENP22553 (antibody, V domains shown)
VH: QIQLVQSGSELKKPGASVKVSCKASGYTFTHYGMNWVRQAPGQGLEWMGWINTYTGEPTYADGFTGRFVFSLDTSVSTAYLQISSLKAEDTAVYFCARDYYGSSPYWGQGTLVTVSS
VL: DVLMTQSPDSLAVSLGERATINCKSSQSIVHSNGNTYLEWYQQKPGQSPKLLIYKVSNRFSGVPDRFSGSGSGTDFTLTISSLQAEDVAVYYCFQGSHVPNTFGGGTKVEIK

Kd (His-tagged human PD-1 [4]): 333 nM
B3: XENP26928 (antibody, V domains shown)
VH: B2 VH
VL: B2 VL with N33E
